Experimental findings from doi:10.64898/2025.12.22.696113 are described below.

The target in the assay is extracellular domain of Arabidopsis thaliana HAESA-LIKE 3 (HSL3, AT5G25930, residues 23–662) (Arabidopsis thaliana). Description: SPR. For orientation: In SPR one partner is held on a chip, and binding of the other changes the refractive index at the surface.
Take CTNIP4^51–70 (peptide): the equilibrium dissociation constant (Kd) – broadly, the equilibrium constant for the complex coming apart – worked out at 3.91 µM and the association rate constant (kon) – broadly, a measure of how fast the partners come together – came to 568 M⁻¹ s⁻¹.

Consider CTNIP4^48–70 (peptide), for which the Kd was determined as 1.99 µM and the association rate constant (kon) came out at 1140 M⁻¹ s⁻¹.

Take CTNIP4^54–70 (peptide): the Kd came out at 5.29 µM and the kon was determined as 498 M⁻¹ s⁻¹.
